Measurements published in US7314747B1, “SMRT co-repressors, transcriptional co-repressors that interact with nuclear hormone receptors” (The Salk Institute for Biological Studies, priority 1995, dated 2008).

Columns and labels:
[1] = biological target: T1, E52-RAR interaction (Homo sapiens, UniProt P10276); test: Yeast two-hybrid assay, E52-RAR interaction; format: cell-based; conditions: 3 μM ligand
T1 construct: hRAR (amino acids 186-462); expressed in transfected cells; host or cells: Y190 yeast cells
T1 sequence (P10276 186-462): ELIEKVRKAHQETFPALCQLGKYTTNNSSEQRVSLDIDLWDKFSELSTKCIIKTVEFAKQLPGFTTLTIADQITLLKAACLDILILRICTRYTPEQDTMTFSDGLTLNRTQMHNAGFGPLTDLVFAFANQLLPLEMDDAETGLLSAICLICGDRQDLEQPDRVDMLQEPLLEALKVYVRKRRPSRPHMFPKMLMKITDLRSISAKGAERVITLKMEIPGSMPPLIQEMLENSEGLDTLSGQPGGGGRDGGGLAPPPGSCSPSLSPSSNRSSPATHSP
Protocol: Transformants were selected onto DO-Leu-Trp-His plates containing 40 mM 3-aminotriazole (Sigma) for 3-4 days. Surviving yeast colonies were picked as primary positives and restreaked on selection plates to isolate single clones. Activation domain plasmids were rescued from the selected positive transformants for further analysis. Each clone was evaluated by testing its potential interaction with several other nuclear receptors using the yeast two-hybrid assays. […] Quantitative liquid assay of β-galactosidase was performed on positive clones 16 hr after treating the yeast cells with no ligand, or with 3 μM ligand.

[2] = biological target: GST-SMRT (GST fusion of the C-SMRT encoded by the yeast two hybrid clone) (human) (UniProt Q9Y618); test: far-western: 35S-labelled receptor on immobilized GST-SMRT, phosphoimager
[3] = tested on: GAL4-TK-luciferase reporter in CV-1 cells; test: GAL4-SMRT amino terminus fusions cotransfected with GAL4-TK-luciferase reporter in CV-1 cells; format: cell-based, Monkey; conditions: luciferase normalized to β-galactosidase
Protocol: Experiments were performed using the plasmids pCMX-GAL4 DBD and pMH100-TK-luc (Nagy et al., (1997), supra). Standard PCR amplifications were used to generate GAL4 fusion constructs. All constructs were verified by double-stranded sequencing to confirm identity and reading frame.
Monkey CV-1 cells were grown in DMEM supplemented with 10% resin-charcoal stripped fetal bovine serum (FBS), 50 units/ml of penicillin G, and 50 μg/ml of streptomycin sulfate at 37° C. in 7% CO2. V-1 cells (60-70% confluence, 48-well plate) were cotransfected with 16 ng of pCMX-GAL4, 100 ng of pMH100-TK-luc, and 100 ng of pCMX-β galactosidase in 200 μl of DMEM containing 10% super-stripped fetal calf serum (FCS) by the N-(1-(2,3-dioleoyloxy)propyl)-N,N,N-trimethylammonium methylsulfate (DOTAP)-mediated procedure (Nagy et al., (1997), supra). The amount of DNA in each transfection was kept constant by addition of pCMX. After 24 hr, the medium was replaced; cells were harvested and assayed for luciferase activity 36 to 48 hr after transfection. […]
Based on the high degree of identity between regions of the SMRT amino terminus and the corresponding N-CoR region, the ability of regions in the SMRT amino terminus to act in transcriptional repression was examined. […] Repression was determined relative to the basal activity of the reporter in the presence of the GAL-DBD alone.

[4] = biological target: T2, GST-SMRT (GST fusion of the C-SMRT encoded by the yeast two hybrid clone) (human, UniProt Q9Y618 2000-2514); test: far-western: 35S-labelled receptor on GST-SMRT, phosphoimager
T2 construct: also called immobilized GST-SMRT; not shown: glutathione S-transferase (GST) tag

[5] = biological target: T3, EcR A483T (Drosophila, UniProt P34021 1-878); test: mammalian two-hybrid in CV-1 cells (with VP16-USP)
T3 construct: CMV vector, cotransfected with VP16-USP; also called repression-defective EcR allele
T3 sequence (looked up): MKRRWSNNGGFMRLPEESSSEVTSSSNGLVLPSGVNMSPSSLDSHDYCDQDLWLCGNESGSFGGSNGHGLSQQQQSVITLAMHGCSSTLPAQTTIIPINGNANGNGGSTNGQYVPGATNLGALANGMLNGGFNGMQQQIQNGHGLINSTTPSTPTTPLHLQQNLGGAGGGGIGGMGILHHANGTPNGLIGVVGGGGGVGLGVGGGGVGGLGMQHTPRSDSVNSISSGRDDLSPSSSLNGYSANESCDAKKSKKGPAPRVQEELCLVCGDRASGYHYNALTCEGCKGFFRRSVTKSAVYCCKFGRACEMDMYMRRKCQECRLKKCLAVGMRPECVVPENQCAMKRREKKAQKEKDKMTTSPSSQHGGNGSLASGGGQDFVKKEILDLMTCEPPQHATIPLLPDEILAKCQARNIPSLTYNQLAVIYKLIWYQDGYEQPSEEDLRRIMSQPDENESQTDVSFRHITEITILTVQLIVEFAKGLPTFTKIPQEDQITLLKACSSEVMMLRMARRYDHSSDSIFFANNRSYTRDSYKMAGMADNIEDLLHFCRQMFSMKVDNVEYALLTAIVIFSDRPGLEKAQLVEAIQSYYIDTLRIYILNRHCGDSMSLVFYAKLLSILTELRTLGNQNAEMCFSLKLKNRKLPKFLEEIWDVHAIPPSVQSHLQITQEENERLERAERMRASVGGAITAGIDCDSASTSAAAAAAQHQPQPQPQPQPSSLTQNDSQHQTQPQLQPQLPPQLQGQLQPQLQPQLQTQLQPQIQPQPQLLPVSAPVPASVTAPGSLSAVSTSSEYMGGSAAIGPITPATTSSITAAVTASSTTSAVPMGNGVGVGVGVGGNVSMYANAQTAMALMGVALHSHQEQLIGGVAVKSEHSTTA

**Q.** How did the “dissociation of the interaction between E52 and RAR by ligand” value [1] turn out when CC1=C(/C=C/C(C)=C/C=C/C(C)=C/C(=O)O)C(C)(C)CCC1 [atRA, all-trans retinoic acid] was run?
**A.** can be dissociated

**Q.** How did the fold interaction relative to wild type RAR (phosphoimager) [2] turn out when “RAR403 (carboxy-terminal deletion mutant of RAR) (from UniProt P10276 1-403) (receptor)” was run?
**A.** 4 fold

B1: m-SMRTβ (amino acids 1 to 813): construct containing the entire amino terminus of m-SMRTβ (protein, UniProt Q9WU42 1-813, looked up, fragment)
chain: MSGSTQPVAQTWRAAEPRYPPHGISYPVQIARSHTDVGLLEYQHHPRDYTSHLSPGSIIQPQRRRPSLLSEFQPGSERSQELHLRPESRTFLPELGKPDIEFTESKRPRLELLPDTLLRPSPLLATGQPSGSEDLTKDRSLAGKLEPVSPPSPPHADPELELAPSRLSKEELIQNMDRVDREITMVEQQISKLKKKQQQLEEEAAKPPEPEKPVSPPPIESKHRSLVQIIYDENRKKAEAAHRILEGLGPQVELPLYNQPSDTRQYHENIKINQAMRKKLILYFKRRNHARKQWEQRFCQRYDQLMEAWEKKVERIENNPRRRAKESKVREYYEKQFPEIRKQRELQERMQSRVGQRGSGLSMSAARSEHEVSEIIDGLSEQENLEKQMRQLAVIPPMLYDADQQRIKFINMNGLMDDPMKVYKDRQVTNMWSEQERDTFREKFMQHPKNFGLIASFLERKTVAECVLYYYLTKKNENYKSLVRRSYRRRGKSQQQQQQQQQQQQQQMARSSQEEKEEKEKEKEADKEEEKQDAENEKEELSKEKTDDTSGEDNDEKEAVASKGRKTANSQGRRKGRITRSMANEANHEETATPQQSSELASMEMNESSRWTEEEMETAKKGLLEHGRNWSAIARMVGSKTVSQCKNFYFNYKKRQNLDEILQQHKLKMEKERNARRKKKKTPAAASEETAFPPAAEDEEMEASGASANEEELAEEAEASQASGNEVPRVGECSGPAAVNNSSDTESVPSPRSEATKDTGPKPTGTEALPAATQPPVPPPEEPAVAPAEPSPVPDASGPPSPEPSPSPAAPPA
modifications: SMRTbeta
**Q.** Which “repression relative to basal reporter activity with GAL-DBD alone” value [3] does the source give for B1 here?
**A.** about 2.6 fold

B2: TR160 (rTRα Pro 160->Arg mutant, full length) (receptor, rat (printed as rTRα), UniProt P63059 1-492, looked up)
chain: MEQKPSKVECGSDPEENSARSPDGKRKRKNGQCPLKSSMSGYIPSYLDKDEQCVVCGDKATGYHYRCITCEGCKGFFRRTIQKNLHPTYSCKYDSCCVIDKITRNQCQLCRFKKCIAVGMAMDLVLDDSKRVAKRKLIEQNRERRRKEEMIRSLQQRPERTPEEWDLIHVATEAHRSTNAQGSHWKQRRKFLPDDIGQSPIVSMPDGDKVDLEAFSEFTKIITPAITRVVDFAKKLPMFSELPCEDQIILLKGCCMEIMSLRAAVRYDPESDTLTLSGEMAVKREQLKNGGLGVVSDAIFELGKSLSAFNLDDTEVALLQAVLLMSTDRSGLLCVDKIEKSQEAYLLAFEHYVNHRKHNIPHFWPKLLMKVTDLRMIGACHASRFLHMKVECPTELFPPLFLEVFEDQEV
notes: mature; 35S-labelled probe; also called rTRα R160 mutant; TR160 mutant
**Q.** How did the “fold lower signal relative to rTRα (phosphoimager)” value [4] turn out when B2 was run?
**A.** 10 fold lower

B3: v-erbA (naturally occurring oncogene, oncogenic TR variant) (receptor)
chain: REEQVTSEQAKFWLGLGGGRVSPPGPECIEKPATERRIDKGEEMGETTVQRDAKMAPEKMATPKTVGTSCYQCGTATGCNCVTASAPPPPYVGSGLYPSLAGAGEQGQGGDTPRGAEQPRAEPGHAGQAPGPALTDWARIREELASTGPPVVAMPVVIKTEGPAWTPLEPEDTRWLDGKHKRKSSQCLVKSSMSGYIPSCLDKDEQCVVCGDKATGYHYRCITCEGCKSFFRRTIQKNLHPTYSCTYDGCCVIDKITRNQCQLCRFKKCISVGMAMDLVLDDSKRVAKRKLIEENRERRRKEEMIKSLQHRPSPSAEEWELIHVVTEAHRSTNAQGSHWKQRRKFLLEDIGQSPMASMLDGDKVDLEAFSEFTKIITPAITRVVDFAKNLPMFSELPCEDQIILLKGCCMEIMSLRAAVRYDPESETLTLSGEMAVKREQLKNGGLGVVSDAIFDLGKSLSAFNLDDTEVALLQAVLLMSSDRTGLICVDKIEKCQESYLLAFEHYINYRKHNIPHFWSKLLMKVADLRMIGAYHASRFLHMKVECPTELSPQEV
**Q.** For B3, which “fold interaction relative to hTRβ (phosphoimager)” value [4] is on record?
**A.** 18 fold

B4: Gal4-c-SMRT (aa 981 to C terminus) (other)
chain: MKLLSSIEQACDICRLKKLKCSKEKPKCAKCLKNNWECRYSPKTKRSPLTRAHLTEVESRLERLEQLFLLIFPREDLDMILKMDSLQDIKALLTGLFVQDNVNKDAVTDRLASVETDMPLTLRQHRISATSSSEESSNKGQRQLTVSAPHHASPDPPAPPASASDPHREKTQSKPFSIQELELRSLGYHGSSYSPEGVEPVSPVSSPSLTHDKGLPKHLEELDKSHLEGELRPKQPGPVKLGGEAAHLPHLRPLPESQPSSSPLLQTAPGVKGHQRVVTLAQHISEVITQDYTRHHPQQLSAPLPAPLYSFPGASCPVLDLRRPPSDLYLPPPDHGAPARGSPHSEGGKRSPEPNKTSVLGGGEDGIEPVSPPEGMTEPGHSRSAVYPLLYRDGEQTEPSRMGSKSPGNTSQPPAFFSKLTESNSAMVKSKKQEINKKLNTHNRNEPEYNISQPGTEIFNMPAITGTGLMTYRSQAVQEHASTNMGLEAIIRKALMGGGKAKVSGRPSSRKAKSPAPGLASGDRPPSVSSVHSEGDCNRRTPLTNRVWEDRPSSAGSTPFPYNPLIMRLQAGVMASPPPPGLPAGSGPLAGPHHAWDEEPKPLLCSQYETLSDSE
notes: also called vertebrate corepressor
**Q.** Does B4 bind [5]?
**A.** no binding
